Measurements from patent US20010018195.

B1: purified recombinant caspase-6 (His6-tagged) (protein)
chain 1: AFYKREMFDPAEKYKMDHRRRGIALIFNHERFFWHLTLPERRGTCADRDNLTRRFSDLGFEVKCFNDLKAEELLLKIHEVSTVSHADADCFVCVFLSHGEGNHIYAYDAKIEIQTLTGLFKGDKCHSLVGKPKIFIIQACRGNQHDVPVIPLDVVD
chain 2: AASVYTLPAGADFLMCYSVAEGYYSHRETVNGSWYIQDLCEMLGKYGSSLEFTELLTLVNRKVSQRRVDFCKDPSAIGKKQVPCFASMLTKKLHFFPKSN
B2: purified recombinant caspase-1 (protein)
chain: NPAMPTSSGSEGNVKLCSLEEAQRIWKQKSAEIYPIMDKSSRTRLALIICNEEFDSIPRRTGAEVDITGMTMLLQNLGYSVDVKKNLTASDMTTELEAFAHRPEHKTSDSTFLVFMSHGIREGICGKKHSEQVPDILQLNAIFNMLNTKNCPSLKDKPKVIIIQACRGDSPGVVWFKDSVGVSGNLSLPTTEEFEDDAIKKAHIEKDFIAFCSSTPDNVSWRHPTMGSVFIGRLIEHMQEYACSCDVEEIFRKVRFSFEQPDGRAQMPTTERVTLTRCFYLFPGH
B3: purified recombinant active caspase-9 (His6-tagged) (protein)
chain: MDEADRRLLRRCRLRLVEELQVDQLWDALLSRELFRPHMIEDIQRAGSGSRRDQARQLIIDLETRGSQALPLFISCLEDTGQDMLASFLRTNRQAAKLSKPTLENLTPVVLRPEIRKPEVLRPETPRPVDIGSGGFGDVGALESLRGNADLAYILSMEPCGHCLIINNVNFCRESGLRTRTGSNIDCEKLRRRFSSLHFMVEVKGDLTAKKMVLALLELAQQDHGALDCCVVVILSHGCQASHLQFPGAVYGTDGCPVSVEKIVNIFNGTSCPSLGGKPKLFFIQACGGEQKDHGFEVASTSPEDESPGSNPEPDATPFQEGLRTFDQLDAISSLPTPSDIFVSYSTFPGFVSWRDPKSGSWYVETLDDIFEQWAHSEDLQSLLLRVANAVSVKGIYKQMPGCFNFLRKKLFFKTS
B4: purified recombinant active caspase-8 (catalytic subunit, Ser 217 to the C-terminus, His6-tagged) (protein)
chain: SESQTLDKVYQMKSKPRGYCLIINNHNFAKAREKVPKLHSIRDRNGTHLDAGALTTTFEELHFEIKPHDDCTVEQIYEILKIYQLMDHSNMDCFICCILSHGDKGIIYGTDGQEAPIYELTSQFTGLKCPSLAGKPKVFFIQACQGDNYQKGIPVETDSEEQPYLEMDLSSPQTRYIPDEADFLLGMATVNNCVSYRNPAEGTWYIQSLCQSLRERCPRGDDILTILTEVNYEVSNKDDKKNMGKQMPQPTFTLRKKLVFPSD

Experiments:
[1] = target: GST-XIAP fusion protein, P98170
Sequence of GST-XIAP fusion protein, P98170 (P98170 whole entry, the tested form may be a part): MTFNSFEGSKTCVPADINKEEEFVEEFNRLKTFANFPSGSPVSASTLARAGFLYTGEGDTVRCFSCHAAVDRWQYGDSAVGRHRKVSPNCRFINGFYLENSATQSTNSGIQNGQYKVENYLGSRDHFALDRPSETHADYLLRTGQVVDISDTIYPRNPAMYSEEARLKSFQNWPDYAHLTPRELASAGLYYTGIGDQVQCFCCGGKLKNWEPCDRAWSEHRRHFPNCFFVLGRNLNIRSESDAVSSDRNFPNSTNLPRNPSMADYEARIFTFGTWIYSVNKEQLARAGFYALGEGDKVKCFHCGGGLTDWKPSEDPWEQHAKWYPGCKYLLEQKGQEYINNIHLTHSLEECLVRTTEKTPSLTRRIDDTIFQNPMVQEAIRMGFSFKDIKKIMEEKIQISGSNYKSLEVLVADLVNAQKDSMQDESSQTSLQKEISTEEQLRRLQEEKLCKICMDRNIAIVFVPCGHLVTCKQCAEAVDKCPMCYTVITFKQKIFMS

[2] = target: GST-c-IAP-1, Q13490
Sequence of GST-c-IAP-1, Q13490 (Q13490 whole entry): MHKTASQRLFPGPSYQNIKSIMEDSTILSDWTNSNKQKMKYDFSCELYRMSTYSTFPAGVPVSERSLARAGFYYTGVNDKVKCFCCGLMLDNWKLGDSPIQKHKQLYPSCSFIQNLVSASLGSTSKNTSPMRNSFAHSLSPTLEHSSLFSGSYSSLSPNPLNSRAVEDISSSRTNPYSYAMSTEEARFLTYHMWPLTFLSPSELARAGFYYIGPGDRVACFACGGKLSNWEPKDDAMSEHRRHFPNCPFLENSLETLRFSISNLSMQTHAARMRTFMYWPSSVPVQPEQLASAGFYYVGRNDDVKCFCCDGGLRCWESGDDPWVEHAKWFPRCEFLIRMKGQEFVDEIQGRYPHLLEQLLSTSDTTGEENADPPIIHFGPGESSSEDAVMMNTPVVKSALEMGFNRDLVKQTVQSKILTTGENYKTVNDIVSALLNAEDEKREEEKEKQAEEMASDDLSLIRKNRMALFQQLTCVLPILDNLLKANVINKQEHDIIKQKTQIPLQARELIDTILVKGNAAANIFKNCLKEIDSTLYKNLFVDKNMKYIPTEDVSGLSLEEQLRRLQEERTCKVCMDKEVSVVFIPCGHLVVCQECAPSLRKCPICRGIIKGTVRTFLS

[3] = target: GST-c-IAP-2, Q13489
Sequence of GST-c-IAP-2, Q13489 (Q13489 whole entry): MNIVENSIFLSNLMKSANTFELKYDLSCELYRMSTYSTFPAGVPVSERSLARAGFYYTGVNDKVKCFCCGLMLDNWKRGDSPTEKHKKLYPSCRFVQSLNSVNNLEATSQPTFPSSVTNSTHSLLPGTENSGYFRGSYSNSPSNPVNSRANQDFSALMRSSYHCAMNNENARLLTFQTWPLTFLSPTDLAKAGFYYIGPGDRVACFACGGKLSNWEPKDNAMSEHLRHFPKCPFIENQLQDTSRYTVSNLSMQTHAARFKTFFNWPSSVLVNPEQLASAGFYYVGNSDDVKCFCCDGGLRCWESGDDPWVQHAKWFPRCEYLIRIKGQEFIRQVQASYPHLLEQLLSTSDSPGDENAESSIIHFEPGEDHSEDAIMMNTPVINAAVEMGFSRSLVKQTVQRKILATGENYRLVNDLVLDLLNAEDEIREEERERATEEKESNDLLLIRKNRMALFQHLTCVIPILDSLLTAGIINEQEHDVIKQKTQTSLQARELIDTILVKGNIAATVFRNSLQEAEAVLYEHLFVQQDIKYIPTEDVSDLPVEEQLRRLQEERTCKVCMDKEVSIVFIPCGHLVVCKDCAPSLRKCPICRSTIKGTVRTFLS

Protein | average ratio velocities (vi/vo) of DEVD-AFC hydrolysis [1] | substrate cleavage by purified caspase [1] | cleavage of purified pro-caspase-3 by active caspase-9 (immunoblot) [1] | coupled reaction: pro-caspase-3 activation by caspase-9, Ac-DEVD-AFC hydrolysis [1] | coupled reaction: pro-caspase-3 activation by caspase-9, Ac-DEVD-AFC hydrolysis [2] | coupled reaction: pro-caspase-3 activation by caspase-9, Ac-DEVD-AFC hydrolysis [3]
B1 | ratios of about 1.0 | did not interfere with substrate cleavage by caspase-1, caspase-6 or caspase-8, even when added at a 50-fold molar excess |  |  |  | 
B2 |  | did not interfere with substrate cleavage by caspase-1, caspase-6 or caspase-8, even when added at a 50-fold molar excess |  |  |  | 
B3 |  |  | Addition of an equimolar concentration of XIAP relative to caspase-9 strongly inhibited cleavage of pro-caspase-3. | XIAP, c-IAP-1 and c-IAP-2 each efficiently inhibited pro-caspase-3 activation and cleavage of the tetrapeptide substrate | XIAP, c-IAP-1 and c-IAP-2 each efficiently inhibited pro-caspase-3 activation and cleavage of the tetrapeptide substrate | XIAP, c-IAP-1 and c-IAP-2 each efficiently inhibited pro-caspase-3 activation and cleavage of the tetrapeptide substrate
B4 | ratios of about 1.0 | did not interfere with substrate cleavage by caspase-1, caspase-6 or caspase-8, even when added at a 50-fold molar excess |  |  |  | 
